# According to the supplement of paper PMC9112550, “Optimization of the antimicrobial peptide Bac7 by deep mutational scanning” (BMC Biology, 2022):
# Tested on: Escherichia coli TOP10
# Experiment: shrunken log2 fold change of peptide-encoding DNA abundance (4.5 h post-induction vs induction); higher = less antimicrobial activity (less host growth inhibition)
# Conditions: time post-induction: 4.5 h; library: site-saturation at positions 5, 18, 19, 20
# 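Further: peptides expressed intracellularly from a pBAD plasmid library in pooled LB shake-flask culture, induced with 0.3% L-arabinose, DNA abundance read by NGS, three biological replicates, DESeq2 with apeglm shrinkage.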
row,Sequence,shrunken log2 fold change
1,RRIRDRPPRLPRPRPRPHHVPRP,-0.145
2,RRIRIRPPRLPRPRPRPEPWPRP,0.39
3,RRIRYRPPRLPRPRPRPPYVPRP,-0.266
4,RRIRLRPPRLPRPRPRPQNTPRP,-0.42
5,RRIRDRPPRLPRPRPRPIMIPRP,-0.408
6,RRIRVRPPRLPRPRPRPFEIPRP,-0.486
7,RRIRWRPPRLPRPRPRPWQYPRP,-0.0277
8,RRIRIRPPRLPRPRPRPKDLPRP,0.000215
9,RRIRERPPRLPRPRPRPDVIPRP,-0.502
10,RRIRDRPPRLPRPRPRPEDEPRP,1.76
11,RRIRGRPPRLPRPRPRPNHDPRP,-0.185
12,RRIRYRPPRLPRPRPRPYCRPRP,-0.377
13,RRIRVRPPRLPRPRPRPGEDPRP,0.0912
14,RRIRARPPRLPRPRPRPMTVPRP,-0.0938
15,RRIRVRPPRLPRPRPRPGRSPRP,0.649
16,RRIRLRPPRLPRPRPRPQHHPRP,-0.54
17,RRIRVRPPRLPRPRPRPFYRPRP,-0.576
18,RRIRDRPPRLPRPRPRPFHIPRP,-0.254
19,RRIRERPPRLPRPRPRPITQPRP,0.0291
20,RRIRWRPPRLPRPRPRPDMSPRP,-0.121
21,RRIRARPPRLPRPRPRPLASPRP,0.841
22,RRIRQRPPRLPRPRPRPRFCPRP,-0.16
23,RRIRIRPPRLPRPRPRPRDGPRP,0.575
24,RRIRTRPPRLPRPRPRPLDMPRP,-0.247
25,RRIRRRPPRLPRPRPRPQTVPRP,-0.0201

row,Sequence,shrunken log2 fold change
1,RRIRKRPPRLPRPRPRPFFIPRP,-0.061
2,RRIRKRPPRLPRPRPRPFFRPRP,0.0596
3,RRIRYRPPRLPRPRPRPWHIPRP,-0.103
4,RRIRNRPPRLPRPRPRPWDKPRP,0.0447
5,RRIRIRPPRLPRPRPRPNKRPRP,-0.368
6,RRIRFRPPRLPRPRPRPYQWPRP,-0.655
7,RRIRYRPPRLPRPRPRPSLAPRP,0.0395
8,RRIRNRPPRLPRPRPRPAKDPRP,0.0231
9,RRIRGRPPRLPRPRPRPFGFPRP,0.828
10,RRIRNRPPRLPRPRPRPCQAPRP,-0.112
11,RRIRRRPPRLPRPRPRPHFPPRP,0.553
12,RRIRKRPPRLPRPRPRPNDGPRP,-0.0887
13,RRIRLRPPRLPRPRPRPWEDPRP,0.0824
14,RRIRLRPPRLPRPRPRPSSPPRP,-0.115
15,RRIRPRPPRLPRPRPRPYGNPRP,-0.79
16,RRIRLRPPRLPRPRPRPADNPRP,-0.26
17,RRIRERPPRLPRPRPRPCICPRP,-0.0733
18,RRIRDRPPRLPRPRPRPGLDPRP,0.0981
19,RRIRQRPPRLPRPRPRPTWEPRP,0.0645
20,RRIRSRPPRLPRPRPRPQTWPRP,-0.164
21,RRIRSRPPRLPRPRPRPISSPRP,-0.0591
22,RRIRIRPPRLPRPRPRPTGRPRP,-0.0536
23,RRIRNRPPRLPRPRPRPELSPRP,0.0211
24,RRIRCRPPRLPRPRPRPKKAPRP,-0.235
25,RRIRVRPPRLPRPRPRPDWAPRP,0.133

row,Sequence,shrunken log2 fold change
1,RRIRKRPPRLPRPRPRPRMRPRP,1.06
2,RRIRARPPRLPRPRPRPGGMPRP,0.337
3,RRIRYRPPRLPRPRPRPDNSPRP,-0.779
4,RRIRLRPPRLPRPRPRPRFDPRP,-0.053
5,RRIRSRPPRLPRPRPRPCLGPRP,-0.127
6,RRIRERPPRLPRPRPRPHDNPRP,-0.227
7,RRIRFRPPRLPRPRPRPIPTPRP,0.0793
8,RRIRCRPPRLPRPRPRPGRRPRP,1.11
9,RRIRYRPPRLPRPRPRPHNYPRP,-0.365
10,RRIRQRPPRLPRPRPRPYIEPRP,-0.45
11,RRIRWRPPRLPRPRPRPQECPRP,-0.0185
12,RRIRRRPPRLPRPRPRPAAVPRP,0.462
13,RRIRPRPPRLPRPRPRPVLWPRP,0.374
14,RRIRLRPPRLPRPRPRPQDKPRP,-0.431
15,RRIRNRPPRLPRPRPRPPWEPRP,-0.0446
16,RRIRERPPRLPRPRPRPGLQPRP,0.103
17,RRIRLRPPRLPRPRPRPKIWPRP,-0.0443
18,RRIRLRPPRLPRPRPRPRQWPRP,0.223
19,RRIRYRPPRLPRPRPRPHWMPRP,-0.233
20,RRIRNRPPRLPRPRPRPEGMPRP,0.225
21,RRIRVRPPRLPRPRPRPFHVPRP,-0.262
22,RRIRVRPPRLPRPRPRPDVFPRP,-0.0779
23,RRIRVRPPRLPRPRPRPICDPRP,-0.0949
24,RRIRARPPRLPRPRPRPWICPRP,-0.0278
25,RRIRVRPPRLPRPRPRPPNFPRP,0.0102

row,Sequence,shrunken log2 fold change
1,RRIRARPPRLPRPRPRPINQPRP,-0.195
2,RRIRLRPPRLPRPRPRPPKSPRP,0.275
3,RRIRNRPPRLPRPRPRPRSLPRP,0.0993
4,RRIRFRPPRLPRPRPRPDQIPRP,-0.0948
5,RRIRWRPPRLPRPRPRPWSRPRP,-0.132
6,RRIRWRPPRLPRPRPRPYWWPRP,-0.0939
7,RRIRLRPPRLPRPRPRPKQSPRP,-0.00745
8,RRIRLRPPRLPRPRPRPAGMPRP,0.213
9,RRIRCRPPRLPRPRPRPYWVPRP,-0.528
10,RRIRFRPPRLPRPRPRPQHCPRP,-0.461
11,RRIRYRPPRLPRPRPRPDCHPRP,-0.0362
12,RRIRNRPPRLPRPRPRPIWIPRP,-0.0856
13,RRIRLRPPRLPRPRPRPGAVPRP,0.375
14,RRIRARPPRLPRPRPRPAQFPRP,0.509
15,RRIRRRPPRLPRPRPRPAHNPRP,0.344
16,RRIRNRPPRLPRPRPRPPKTPRP,-0.103
17,RRIRVRPPRLPRPRPRPQRYPRP,-0.883
18,RRIRFRPPRLPRPRPRPLDFPRP,-0.325
19,RRIRDRPPRLPRPRPRPTGCPRP,0.247
20,RRIRCRPPRLPRPRPRPMKSPRP,-0.1
21,RRIRLRPPRLPRPRPRPMEQPRP,0.168
22,RRIRNRPPRLPRPRPRPVRHPRP,-0.0637
23,RRIRYRPPRLPRPRPRPRWAPRP,-0.0106
24,RRIRHRPPRLPRPRPRPKSCPRP,-0.0344
25,RRIRCRPPRLPRPRPRPAHRPRP,0.392

row,Sequence,shrunken log2 fold change
1,RRIRFRPPRLPRPRPRPLAFPRP,-0.134
2,RRIRNRPPRLPRPRPRPMMMPRP,-0.0535
3,RRIRYRPPRLPRPRPRPCDTPRP,-0.0977
4,RRIRSRPPRLPRPRPRPKMQPRP,0.055
5,RRIRNRPPRLPRPRPRPYQEPRP,-0.00962
6,RRIRMRPPRLPRPRPRPCHWPRP,-0.022
7,RRIRYRPPRLPRPRPRPNRIPRP,-0.815
8,RRIRTRPPRLPRPRPRPFIWPRP,-0.485
9,RRIRPRPPRLPRPRPRPMYPPRP,-0.135
10,RRIRPRPPRLPRPRPRPYQEPRP,-0.418
11,RRIRIRPPRLPRPRPRPVKRPRP,-0.09
12,RRIRNRPPRLPRPRPRPQIYPRP,-0.0394
13,RRIRPRPPRLPRPRPRPWYEPRP,-0.441
14,RRIRARPPRLPRPRPRPTDSPRP,0.00832
15,RRIRIRPPRLPRPRPRPTYYPRP,-0.827
16,RRIRCRPPRLPRPRPRPTNAPRP,0.307
17,RRIRIRPPRLPRPRPRPLSRPRP,-0.243
18,RRIRGRPPRLPRPRPRPGTMPRP,0.0523
19,RRIRARPPRLPRPRPRPDSCPRP,0.156
20,RRIRNRPPRLPRPRPRPYAFPRP,0.0147
21,RRIRTRPPRLPRPRPRPMAAPRP,0.0975
22,RRIRTRPPRLPRPRPRPTPTPRP,0.289
23,RRIRWRPPRLPRPRPRPVGAPRP,1.73
24,RRIRCRPPRLPRPRPRPCYWPRP,-0.595
25,RRIRERPPRLPRPRPRPHDEPRP,0.00178
